Reference: paper PMC5004148

Experiments:
[1] = molecular target: transmembrane truncated VP24 (residues 28-208) (White spot syndrome virus (WSSV)); test: crystal structure; X-ray, SAD phasing, 2.4 Å, space group I 2(1) 3; trimer by the crystallographic three-fold axis; 0.1 M Tris-HCl pH 8.5, 2.75 M ammonium acetate, 10 mM ATP as additive, 16 °C
[2] = molecular target: transmembrane truncated VP24 (residues 28-208) (White spot syndrome virus (WSSV)); test: cross-linking; purified VP24 in PBS (around 0.6 mg/ml in 40 ul) with rising glutaraldehyde, room temperature, 4 h; 15% SDS-PAGE, Coomassie blue

“transmembrane truncated VP24 (residues 28-208) (domain or fragment)” gave a stoichiometry N [1] of 3 and a stoichiometry N [2] of 3.
